Test results taken from the domain aggregation screens of Martell et al. (2025).

Experiment: soluble fraction after stress (log2 fold change); higher = more stays soluble; pooled small domains, quantitative proteomics
Conditions: stress: 50 degC
Outline: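 The measure of aggregation propensity here is the base-two logarithm of the fold change in the soluble amount of each protein after stress. A higher value means more of that protein stays in solution. Stress was applied at 50°C to pooled libraries of small protein domains, read out by high-throughput quantitative proteomics.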

Q: For “HMTPEGAYTVSEIVKVINSFADEYKVPFTMHVSGYKYEEIAQQLGLPIGTVKSRIFFARKRLQELLN”, which “soluble fraction (log2)” value is on record?
A: -0.952

Q: With “HMRYEESVTLGERLLNQSLVALKADNIDDALWERFLREEAGEKSRQEILSDIGLGKRLPVVVAKRLLAPS” as the sequence, how does the “soluble fraction (log2)” value read?
A: 0.0281

Q: For “HMNQDIIEIGNNIQKIRKKNGISQSVLAEKIDVAGNSIYRMEGATTVMGVDKLINIADALNTSPMDILPAR”, which “soluble fraction (log2)” value is on record?
A: 0.13

Q: With “HMGSFGAMLKRNRKLAGLTQEQLAEKLDVSTVAVQNWESGKNQIRSEKLTKLSYLFNIPLETLIHEMLIS” as the sequence, how does the “soluble fraction (log2)” value read?
A: -0.951

Q: With “HMIQYRKILELHFKDISQRTISTSVGSSRNTVSDVIKRSEQLGLERLTDNMNNRWLEEFLFPEKQ” as the sequence, how does the “soluble fraction (log2)” value read?
A: -4.17

Q: With “HMDIEELLSRSTDRLSRQTEIRRLLADAQGRPNISSLARRFKVARRTVIRDLQELIRRGEVPPEIYPK” as the sequence, how does the “soluble fraction (log2)” value read?
A: -0.744

Q: For “HMDAVLMEYDRLLALELTEDPDVYQDLLDKVREQSLGADGRVTDKYREKFDAVATRFDDYEDNYQW”, which “soluble fraction (log2)” value is on record?
A: -0.52

Q: Which “soluble fraction (log2)” value does the source give for “HMDGLAEQLFNILREELESGDYKPGQKLMSESALAQKYGVSRLTVRAAIARLSALDYVETRNGEGSFVKKR” here?
A: 0.0422

Q: For “HMSFSTHHEYYIYNLAVDMRKGYDGLSGLVVNELGRQPWDGSVYVFFNTMRDKVKLLVWDTDGYVIYSKR”, which “soluble fraction (log2)” value is on record?
A: 0.279

Q: For “HMETLSVRERMTSIISLLNKHEDIEFSKLFNISEGRLGVVVTFLALLELVKESLVDVIQNQPMSKLYIGKK”, which “soluble fraction (log2)” value is on record?
A: -0.311

Q: For “HMTLKTISLTEAIKNTNEGNYSKLVLDGNELTITEQGKETPSLKTYTEPGTSLKEQGFDLSKVEFEAREQS”, which “soluble fraction (log2)” value is on record?
A: 0.152

Q: Which “soluble fraction (log2)” value does the source give for “HMRQDEKTLLYWIAGHLKREGRQITERSARHLVEQVGTDMENLSREMEKLIAYTMGRTEITGQDIDDI” here?
A: -1.68

Q: With “HMTLYITDQMRKILDYVATNQEIDEKAVMDLLSIQRTRAYLIAKKMTDIGLLQVQGRGKTKTYRLAARS” as the sequence, how does the “soluble fraction (log2)” value read?
A: -1.93

Q: With “HMLRRNQVQSQVIPRENGSYVVELQLRDDVDSILRLELTAATEAMARDLADRFRQDPEGVYTRLLSALY” as the sequence, how does the “soluble fraction (log2)” value read?
A: -0.789

Q: Which “soluble fraction (log2)” value does the source give for “HMGGALSPDFGWLAMIDPDEGRAITLYDIASGEAIAVLDTHEARVAALAWSPDGTRLASGDQNGLIVQWEI” here?
A: -0.432

Q: With “HMAIGTDPETGISVVADGTDFIWTRSGATSTIFLRLDSENSYILNVKQGDFEVIDYELGEGQENAINIDQS” as the sequence, how does the “soluble fraction (log2)” value read?
A: -0.0311

Q: With “HMGQAVTMLKAGRLLANAKGTGAPVRSLEPGMLLYPTGVKEGTMWEVEDEMGNKGWVNSTLMETA” as the sequence, how does the “soluble fraction (log2)” value read?
A: -0.212

Q: For “HMGPSVGMTVGEMERDLIFRTLETVGDNRTKAADMLGISIRTLRNKLNEYREAGFEWPRKAG”, which “soluble fraction (log2)” value is on record?
A: 0.00867

Q: Which “soluble fraction (log2)” value does the source give for “HMDIVQLSEKINVMKMEIPAQAIGKTVLEVNFRARFDLNIIAIENGGKLVEVIKPDYVFREGDILFLSGS” here?
A: -1.16

Q: With “HMDFDFHALGREIKRKRKDKGWTQEYLAQLLDRTPRSIMYMENRGQHPSLNILFKIATLLEISIDQFFF” as the sequence, how does the “soluble fraction (log2)” value read?
A: 0.194

Q: Which “soluble fraction (log2)” value does the source give for “HMKAERLLALLTILLSGKRVSARWLSEELEVSERTVYRDVEALSEAGFPVYATTGRDGGFSLIDGF” here?
A: -2.08

Q: Which “soluble fraction (log2)” value does the source give for “HMEKRIIMLEELKKQVYEANMELPRRGLITYTWGNVSGIDRESGNFVIKPSGVDYDKLKPEDMVVMDL” here?
A: -0.0887

Q: For “HMIRALVPGQTLHGEIVGRNGGEVQVRLAEDMILNARVDQNIYLELGKDLTFEVKNNGATLTLSPL”, which “soluble fraction (log2)” value is on record?
A: -0.272

Q: With “HMSTIAAMADPRAWALEMLGFPPGTVKPSKREIQVRFRESLRDVHPDHGGDSRTASASINDLSEARRVLLS” as the sequence, how does the “soluble fraction (log2)” value read?
A: -0.188

Q: Which “soluble fraction (log2)” value does the source give for “HMKELFETLPDVLDAKLLASALSISKAGAYQLLNRPDFPTLQVGGWKLVTKQKLALWMEQHTN” here?
A: -3.21

Q: Which “soluble fraction (log2)” value does the source give for “HMREGLRHLRVRMPGGAGETLAMLYREGEVLSQSSDGAFIEVEIRVAQSVAGRLLQMPGVQLTEEVG” here?
A: -0.21

Q: With “HMFRPDYYEILQVDRHASPEVITAAYRQLLSIYNSEQDGNKQMIKLIQEAYGVLGDSQDRWLYDSWLDNN” as the sequence, how does the “soluble fraction (log2)” value read?
A: -0.746

Q: With “HMQFETVQDAFNHYRNASLEEIESRAAEIKGIIESDPEADVRALNIEIEGLHQAKQNILEKQKTK” as the sequence, how does the “soluble fraction (log2)” value read?
A: -0.0753

Q: Which “soluble fraction (log2)” value does the source give for “HMPPFTYHLERAKRKTVGFIVDERGVTVRAPRWVSVSEIEKMLQTKEAWIQKKLTEFHNWQKE” here?
A: -3.11

Q: For “HMIPSGISEHPISKLPLSMSIIHRLELAGIKTIGDITGENFSRLQEIPRIGKVTAKRILEAIQSYSEQLP”, which “soluble fraction (log2)” value is on record?
A: -0.15

Q: With “HMGLLGIYPNPVEGGSVRLLSDADLFGSRFELYDQSGKLVLNGFVTEGNFVSVKGISSGLYISVSYT” as the sequence, how does the “soluble fraction (log2)” value read?
A: 0.0024

Q: With “HMLPRLVLSPGTEVLATVMGKYENGMSLVKISSHLFAMDLPSRVQVGDSLRMTFLHQDARPTFALA” as the sequence, how does the “soluble fraction (log2)” value read?
A: -0.779

Q: For “HMETAADLLAAAKENPARFGILASEGRFGLGYMNDDLLDPDNLVAISREEADDLRGLGVYFHNLD”, which “soluble fraction (log2)” value is on record?
A: -0.0842

Q: Which “soluble fraction (log2)” value does the source give for “HMSGGNTSAFKGKLNYEYRGNDTIITGSTYPVKELIKKAGGRWDPGSSAWIIKGRHVSDNEIF” here?
A: 0.171

Q: With “HMESKITTAEAAAILNASPQFVRVAMQRGILNIGIAMQMPNSNKWTYNISPKLLGEYSGKNIEYELERLR” as the sequence, how does the “soluble fraction (log2)” value read?
A: -1.54

Q: With “HMTPVKAPLPGVVTKINVSVGQQVKKGENVLVLEAMKMENNIAAEADGTVSGIAVKAGDSVLEGAVLLTI” as the sequence, how does the “soluble fraction (log2)” value read?
A: 0.184

Q: Which “soluble fraction (log2)” value does the source give for “HMGDGMEVWVNGSPVNLTGKDSFIFVDIFDFIDFDLTASKGRLIVIKVNGEYAEYTRPLHNGDTIEIYWEE” here?
A: -0.0714

Q: With “HMNNLGSKIKELRIAENLTQEKLAEELNVSFQSISRWENGISTPDISLIPAIARFFGVSTDYLFGLQD” as the sequence, how does the “soluble fraction (log2)” value read?
A: -0.384

Q: For “HMRLEYLVDVEEISIKEYLMLLGLSRRLARKIKLYGKMYINHQEAFNYHLVKKGDLLTIEFDE”, which “soluble fraction (log2)” value is on record?
A: -2.55

Q: Which “soluble fraction (log2)” value does the source give for “HMGIYDQAAAAYIEFVESKNRAPKWNELIDALYKENGKDWIDRSTLHGLLRRKEFQELLAQKRKEHLV” here?
A: -0.184

Q: With “HMSSESIIIKKLIEEFIHNENKYSPLSDEKLSYLLKNKGFSVARRTVAKYRDELGILSTRERKIKI” as the sequence, how does the “soluble fraction (log2)” value read?
A: -0.745

Q: For “HMEFDVELTSFEEAKKLKVIKEVKDVTGLSLGEAKDLVMGAPKAIKTGVSKEEAEAIKTQIEAAGAVVTI”, which “soluble fraction (log2)” value is on record?
A: 0.122

Q: For “HMEGLEKDDGGYYFEKDNGERARNEWVYVEYEGKGYWYYMTDYGYPLRSAITPDGYKVNSNGHWIDEGN”, which “soluble fraction (log2)” value is on record?
A: -0.825

Q: Which “soluble fraction (log2)” value does the source give for “HMVEKRLFPQISDAGKRLDLFLAGALAISRTMVVKIIKDGGVLVNGKAAKASYRLAGDEELLVSYEEP” here?
A: 0.395

Q: For “HMNTISEADAKRIALERAGLTAADYVKVDYDQDDNEYEVEMRSGNTEYEVKISGSTGAVLEYDSETD”, which “soluble fraction (log2)” value is on record?
A: 0.149

Q: Which “soluble fraction (log2)” value does the source give for “HMTIDTSNDLLNQITEATSKGPISILELKDQLNVNASDIEGELRTLIDQHLVFLKDGMLQVIPFD” here?
A: -0.0624

Q: With “HMDGVSAEAVKSHIKTLIDGEGAKILSDDTLVDLLNAKGFDIARRTVAKYREAMGIGSSVQRRRQKKMG” as the sequence, how does the “soluble fraction (log2)” value read?
A: 0.178

Q: For “HMTSRIHDYWTSPGQPGYAKIGWGTAGDFRRAKALIGEKIAANSPEDMRYLNQIIAQWHFDALGYWPGDH”, which “soluble fraction (log2)” value is on record?
A: -2.49

Q: With “HMEKIYLISDAAKQVNVEAHVLRYWEEELDIPAKRNELGHRYYTQEDIETFRKVKELKAQGIQLKGIKNIL” as the sequence, how does the “soluble fraction (log2)” value read?
A: 0.123

Q: Which “soluble fraction (log2)” value does the source give for “HMTLNQEELMGKTEAILFAGGEPVSLDRIAQVLGVRTPVIDSIVSALQEKYNTPTSGIQLMRL” here?
A: -0.143
